Results as given in paper PMC10879482.

Columns and labels:
[1] = target: human SIDT1 (hSIDT1) (human) (UniProt Q9NXL6); assay: cryo-EM structure; hSIDT1 at pH 5.5 (hSIDT1^pH5.5); homodimer, dimer interface rearranged against pH 7.5
[2] = target: human SIDT1 (hSIDT1) (human) (UniProt Q9NXL6); assay: cryo-EM structure; hSIDT1 at pH 7.5 (hSIDT1^pH7.5); cholesteryl hemisuccinate in the buffer during membrane solubilization; homodimer

stoichiometry N [1]: 2
stoichiometry N [2]: 2
Substance: human SIDT1 (hSIDT1) (from UniProt Q9NXL6 20-827) (natural protein)
